Experimental data as given in US20240199761A1 (AstraZeneca / MedImmune, published 2024).
Residue numbers refer to the chain shown, from its start.

Experiments:
[1] = target: recombinant human PAD2 (human, UniProt Q9Y2J8 1-665, enzymatically biotinylated on an Avi-tag (when captured on the SPR chip)); test: cell-based or functional assay
[2] = target: T1, huFcRn (human, UniProt P55899 24-297; P61769 21-119, limits assumed); test: huFcRn affinity chromatography, pH gradient elution
T1 construct: also called human neonatal Fc receptor

[3] = target: recombinant human PAD2 (human, UniProt Q9Y2J8 1-665); test: cell-based or functional assay
[4] = target: T2, recombinant mouse PAD2 (mouse, UniProt Q08642 1-673); test: ratio of SPR KDs, mouse PAD2 against human PAD2; antibody captured on C1-Protein G', PAD flowed over
T2 construct: Recombinant and tagged

[5] = target: T3, recombinant mouse PAD2 (mouse, UniProt Q08642 1-673, enzymatically biotinylated on an Avi-tag); test: SPR (Biacore 8K), biotinylated PAD2 on streptavidin chip, Fab flowed over
T3 construct: Recombinant, biotinylated on an Avi-tag

[6] = target: T4, recombinant human PAD2 (human, UniProt Q9Y2J8 1-665, enzymatically biotinylated on an Avi-tag); test: as above
T4 construct: Recombinant, biotinylated on an Avi-tag and captured on streptavidin; also called peptidyl arginine deiminase 2

[7] = target: T5, cynomolgus PAD2, recombinant, tags at the N-terminus (cynomolgus, UniProt G7NUR0 1-665, enzymatically biotinylated on an Avi-tag where captured on streptavidin); test: SPR; antibody on C1-Protein G', PAD2 flowed over
T5 construct: also called Cyno PAD2; not shown: N-terminal tags incl; Avi-tag

[8] = target: T6, mouse PAD2, recombinant, tags at the N-terminus (mouse, UniProt Q08642 1-673, enzymatically biotinylated on an Avi-tag where captured on streptavidin); test: SPR; antibody on C1-Protein G', PAD2 flowed over
T6 construct: not shown: N-terminal tags incl; Avi-tag

[9] = target: T7, human PAD2, recombinant, tags at the N-terminus (human, UniProt Q9Y2J8 1-665, enzymatically biotinylated on an Avi-tag where captured on streptavidin); test: SPR; antibody on C1-Protein G', PAD2 flowed over
T7 construct: not shown: N-terminal tags incl; Avi-tag

[10] = target: T5, cynomolgus PAD2, recombinant, tags at …; test: SPR; antibody captured on a surface, PAD2 flowed over
[11] = target: T6, mouse PAD2, recombinant, tags at the …; test: as above
[12] = target: T7, human PAD2, recombinant, tags at the …; test: as above
[13] = target: T5, cynomolgus PAD2, recombinant, tags at …; test: SPR; antibody on C1-Protein G', PAD2 flowed over; remark: listed apart in the source
[14] = target: T6, mouse PAD2, recombinant, tags at the …; test: SPR; antibody on C1-Protein G', PAD2 flowed over; remark: listed apart in the source
[15] = target: T7, human PAD2, recombinant, tags at the …; test: SPR; antibody on C1-Protein G', PAD2 flowed over; remark: listed apart in the source
[16] = target: T8, recombinant mouse PAD4 (mouse, UniProt Q9Z183 1-666); test: SPR; biotinylated antibody captured on C1-streptavidin, PAD4 flowed over
T8 construct: Recombinant

B1: Clone 07 (Bis3, TM; PAD4 Fab, PAD2 scFv) (bispecific antibody, human IgG1, lambda)
heavy: not shown
light: QSALTQPRSVSGSPGQSVTISCTGTSGDVGRYSHVSWYQQHPGKAPKLIIYNVYERPSGVPDRFSGSKSGNTASLTISGLQAEDEADYYCSSHSRSSTPVLFGGGTKLTVLGQPKAAPSVTLFPPSSEELQANKATLVCLISDFYPGAVTVAWKADSSPVKAGVETTTPSKQSNNKYAASSYLSLTPEQWKSHRSYSCQVTHEGSTVEKTVAPTECS
Question: With B1 as the binder, how does the “potency (IC50), Histone-H3 citrullination ELISA, recombinant PAD2” value (from here on “potency (IC50) … recombinant PAD2”) [1] read?
Answer: < 1000 pM

B2: Clone 07 (Bis3, TM; Fab anti-PAD4, scFv anti-PAD2) (bispecific antibody, human IgG1, lambda)
heavy: not shown
light: B1 light
notes: Bivalent bispecific IgG-HC-scFv; also called Clone 7*; PAD240007
Question: Which results are given for B2?
Answer: HPLC retention [2]: 17.8 min; Relative retention [2]: -0.081; Potency (IC50), Histone-H3 assay [3]: 238 pM; fold difference in KD, mouse/human [4]: 1 fold

B3: Clone 22 (IgG) (141LO0035 hIgG1 pgl-4) (antibody, V domains shown)
VH: not shown
VL: SYVLTQPPSVSVSPGQTASITCSGDKVGDKYVSWYQQKPGQSPVLVIYQDSQRPSGIPERFSGSNSGNTATLTISGTQAMDEADYYCQTWAPDVLLFGSGTKVTVL
notes: also called PAD2 IgG
Question: B3 was tested. Which “Potency (IC50), Histone-H3 assay” value [3] did it give?
Answer: 138 pM

Question: And the “fold difference in KD, mouse/human” value [4]?
Answer: 1.2 fold

B4: Clone 08 (Bis3, TM; PAD2 Fab, PAD4 scFv) (bispecific antibody, human IgG1, lambda)
heavy: not shown
light: SYVLTQPPSVSVSPGQTASITCSGDKVGDKYVSWYQQKPGQSPVLVIYQDSQRPSGIPERFSGSNSGNTATLTISGTQAMDEADYYCQTWAPDVLLFGSGTKVTVLGQPKAAPSVTLFPPSSEELQANKATLVCLISDFYPGAVTVAWKADSSPVKAGVETTTPSKQSNNKYAASSYLSLTPEQWKSHRSYSCQVTHEGSTVEKTVAPTECS
Question: With B4 as the binder, how does the “potency (IC50) … recombinant PAD2” value [1] read?
Answer: < 1000 pM

B5: Clone 22 (141LO0035 hIgG1 pgl-4), anti-PAD2, as IgG (antibody, V domains shown)
VH: not shown
VL: B3 VL
Question: B5 was tested. Which “potency (IC50) … recombinant PAD2” value [1] did it give?
Answer: < 1000 pM

B6: 141LO0035 hIgG1 ngl-2 (anti-PAD2) Fab (Fab, V domains shown)
VH: not shown
VL: B3 VL with S42A, I47M, F61I, M80V, D84E
notes: Tested as Fab
Question: For B6, which Kd [5] is on record?
Answer: 571 pM

Question: And the Kd [6]?
Answer: 185 pM

B7: 141LO0039 hIgG1 pgl-4 (anti-PAD2) Fab (Fab, V domains shown)
VH: not shown
VL: B3 VL with Q88H, W90Y, P92E, V94E, L95Y, L96V
notes: Tested as Fab
Question: Which results are given for B7?
Answer: Kd [5]: 17800 pM; Kd [6]: 3900 pM

B8: 141LO0002 hIgG1 pgl-3 (anti-PAD2) Fab (Fab, V domains shown)
VH: not shown
VL: B3 VL with Q88E, T89V, W90G, A91V, P92D, D93Y, V94E, L95Y, L96V
notes: Tested as Fab
Question: What does the source list for B8?
Answer: Kd [5]: 33800 pM; Kd [6]: 3310 pM

B9: 141LO0002 hIgG1 pgl-4 (anti-PAD2) Fab (Fab, V domains shown)
VH: not shown
VL: B3 VL with Q88E, T89V, W90G, A91V, P92D, D93Y, V94E, L95Y, L96V
Question: Which Kd [5] does the source give for B9 here?
Answer: 38500 pM

Question: What about the Kd [6] of the same binder?
Answer: 2780 pM

B10: PAD40175 hIgG1 ngl-2 (anti-PAD2) Fab (Fab, V domains shown)
VH: not shown
VL: QAVLTQPSSVSVAPGKTATITCGGDNIGSKSVHWYQQKPGQAPLLVIFYDTDRPSGVPERFSGSNSGNTATLTISRVEAGDEADYYCQVWDSNGDHYVFGTGTKLTVL
notes: Tested as Fab
Question: For B10, which Kd [5] is on record?
Answer: 2350 pM

Question: And the Kd [6]?
Answer: 6730 pM

B11: anti-PAD2 Clone 22 (141LO0035 hIgG1 pgl-4), IgG (antibody, V domains shown)
VH: not shown
VL: B3 VL
notes: also called Clone 22 (IgG)
Question: What does the source list for B11?
Answer: Kd [7]: 11 pM; Kd [8]: 4.59 pM; Kd [9]: 3.9 pM; Kd [10]: 11 pM; koff [10]: 3.33e-05 s⁻¹; kon [10]: 3.06e+06 M⁻¹ s⁻¹; Kd [11]: 4.59 pM; koff [11]: 2.24e-05 s⁻¹; kon [11]: 4.93e+06 M⁻¹ s⁻¹; Kd [12]: 3.9 pM; koff [12]: 1.71e-05 s⁻¹; kon [12]: 4.36e+06 M⁻¹ s⁻¹

B12: Clone 07, Bis3 anti-PAD4 Fab / anti-PAD2 scFv, Fc TM (bispecific antibody, human IgG1, lambda)
heavy: not shown
light: B1 light
notes: Bivalent for PAD2 and for PAD4; also called Clone 7*; PAD240007
Question: B12 was tested. Which Kd [13] did it give?
Answer: 21.9 pM

Question: And the koff [13]?
Answer: 5.46e-05 s⁻¹

Question: And the kon [13]?
Answer: 2.61e+06 M⁻¹ s⁻¹

Question: And the Kd [14]?
Answer: 16.2 pM

Question: What about the koff [14] of the same binder?
Answer: 4.45e-05 s⁻¹

Question: And the kon [14]?
Answer: 2.76e+06 M⁻¹ s⁻¹

Question: And the Kd [15]?
Answer: 16.1 pM

Question: What about the koff [15] of the same binder?
Answer: 3.21e-05 s⁻¹

Question: And the kon [15]?
Answer: 2e+06 M⁻¹ s⁻¹

Question: What about the Kd [7] of the same binder?
Answer: 21.9 pM

Question: What about the Kd [8] of the same binder?
Answer: 16.2 pM

Question: And the Kd [9]?
Answer: 16.1 pM

B13: AB1630204 (mouse anti-PAD4) (antibody, V domains shown)
VH: QVQLQQPGAELVKPGASVKLSCKASGYTFTSYWMHWVKQRPGRGPEWIGRIDPNSGGTKYNEKFKSKAILTVDKPSSTAYMQLSSLTSEDSAVYYCAREGGDYWYFDVWGAGTTVTVSS
VL: QIVLTQSPALMSASPGEKVTMTCSANSGLRYMYWYQQKPRSSPKPWIYLTSNLASGVPARFSGSGSGTSYSLTISSMEAEDAATYYCQQWSSIPPTFGAGTKLELK
notes: Biotinylated antibody captured on the chip
Question: Which Kd [16] does the source give for B13 here?
Answer: 1310 pM

Question: And the koff [16]?
Answer: 0.000314 s⁻¹

Question: And the kon [16]?
Answer: 239000 M⁻¹ s⁻¹

B14: AB1630205 (mouse anti-PAD4) (antibody, V domains shown)
VH: EVQLVESGGGLVKPGGSRKLSCAASGFTFSDYGMHWVRQAPEKGLEWVAYISSGSSTIYYADTVKGRFTISRDNAKNTLFLQMTSLRSEDTAMYYCTRTYYDDAMDYWGQGTSVTVSS
VL: SIVMTQTPKFLLVSAGDRVTITCKASQSVSNDVVWYQQKPGQSPKLLISYASNRYTGVPDRFTGSGYGTDFTFTISSVQAEDLAVYFCQQDYSSPWTFGGGTKLEIK
notes: as for B13
Question: Which Kd [16] does the source give for B14 here?
Answer: 94 pM

Question: What about the koff [16] of the same binder?
Answer: 0.000106 s⁻¹

Question: And the kon [16]?
Answer: 1.14e+06 M⁻¹ s⁻¹
